Measured values reported in paper PMC12095048.

Biological target: USP7 (UniProt Q93009)
Assay: co-IP of Flag-HIF-1α, USP7 blot
Settings: reference: wild type Flag-HIF-1α; sites T645

HIF-1α (from UniProt Q16665) Flag-HIF-1α T645A
binding against the reference: weaker
